# According to IntAct's records for PubMed 31515488:
# B1: Microtubule-associated tumor suppressor candidate 2 (Homo sapiens), Q5JR59-3 (parent)
# chain: MGHCCCKPYNCLQCLDKTNESALVKEKELSIELANIRDEVAFHTAKCEKLQKEKEELERRFEDEVKRLGWQQQAELQELEERLQLQFEAEMARLQEEHGDQLLSIRCQHQEQVEDLTASHDAALLEMENNHTVAITILQDDHDHKVQELMSTHELEKKELEENFEKLRLSLQDQVDTLTFQSQSLRDRARRFEEALRKNTEEQLEIALAPYQHLEEDMKSLKQVLEMKNQQIHEQEKKILELEKLAEKNIILEEKIQVLQQQNEDLKARIDQNTVVTRQLSEENANLQEYVEKETQEKKRLSRTNEELLWKLQTGDPTSPIKLSPTSPVYRGSSSGPSSPARVSTTPR
# partner: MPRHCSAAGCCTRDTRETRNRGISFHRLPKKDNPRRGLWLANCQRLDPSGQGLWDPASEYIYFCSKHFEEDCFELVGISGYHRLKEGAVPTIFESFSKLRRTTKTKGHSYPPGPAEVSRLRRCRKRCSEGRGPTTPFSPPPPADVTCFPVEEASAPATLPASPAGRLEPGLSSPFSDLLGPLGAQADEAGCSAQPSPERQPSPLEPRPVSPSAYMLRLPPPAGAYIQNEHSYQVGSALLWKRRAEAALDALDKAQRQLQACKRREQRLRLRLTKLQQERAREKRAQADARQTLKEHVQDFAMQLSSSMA
# B2: Coiled-coil domain-containing protein 185 (Homo sapiens), Q8N715 (parent)
# chain: MAGFSHFSQPPYRDLWEPPRPGGERESTQRLGGQRSGADSTACSRAGTPGAESEAGACWLHPHCSFTPRPRRRGCSDSLRGSRSLSDVARRPLERSRKHRPRSRRLEDAWGETGTKPRPAWQPQTQLPPQRPQPCPHYPLAQGDSPPPCPGGAGTPLSGTFRVEKAQGGDQWAVPLGRHLGRWSPSSVPSERSSVPSQKFKRHSACVCAQKRDSSDQVESLASRDSQPLASSKEMRSPHTQVLKSKLEEVVVSSQDQQIVALVLTRLKKAQRIRELQQQAAKAWEELKRSDQKVQMTLERERRLLLRQSQEQWQEKEQRKTLQSPEQRGLRRDSQRKNVPPGESRWKEQPEDQESPRQEKLEKARAQAEHRKQCQVRRLREQEKMLRNLREQHSLQLQRRLVEACRKRHLHAVEGQKKVQDTNLSSLINYQARKVLMDCQAKAEELLRQLSLEQSFQRSQEIHQGLRKERQRELREKAQKEEEQLQQARWRAGESEEQRKMRKRILVELADEKIRQARSHVHKTTRDKVQHLRELNHLREKNHHILKLKAEKEEKCHIEGIKEAIKKKEQRVQHISQGKDPNFQEFQKLPQASRREERAPPNSSLDQMVLEAQLRACQQNRGY
# partner: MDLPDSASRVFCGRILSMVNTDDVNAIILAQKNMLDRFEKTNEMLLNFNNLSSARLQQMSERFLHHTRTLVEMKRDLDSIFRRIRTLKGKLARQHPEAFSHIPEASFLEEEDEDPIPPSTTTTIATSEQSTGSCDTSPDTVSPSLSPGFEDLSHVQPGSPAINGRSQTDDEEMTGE
# B3: Protein FAM200C (Homo sapiens), Q8IZ13 (parent)
# chain: MSKKRKWDDDYVRYWFTCTTEVDGTQRPQCVLCNSVFSNADLRPSKLSDHFNRQHGGVAGHDLNSLKHMPAPSDQSETLKAFGVASHEDTLLQASYQFAYLCAKEKNPHTVAEKLVKPCALEIAQIVLGPDAQKKLQQVPLSDDVIHSRIDEMSQDILQQVLEDIKASPLKVGIQLAETTDMDDCSQLMAFVRYIKEREIVEEFLFCEPLQLSMKGIDVFNLFRDFFLKHKIALDVCGSVCTDGASSMLGENSEFVAYVKKEIPHIVVTHCLLNPHALVIKTLPTKLRDALFTVVRVINFIKGRAPNHRLFQAFFEEIGIEYSVLLFHTEMRWLSRGQILTHIFEMYEEINQFLHHKSSNLVDGFENKEFKIHLAYLADLFKHLNELSASMQRTGMNTVSAREKLSAFVRKFPFWQKRIEKRNFTNFPFLEEIIVSDNEGIFIAAEITLHLQQLSNFFHGYFSIGDLNEASKWILDPFLFNIDFVDDSYLMKNDLAELRASGQILMEFETMKLEDFWCAQFTAFPNLAKTALEILMPFATTYLCELGFSSLLHFKTKSRSCFNLSDDIRVAISKKVPRFSDIIEQKLQLQQKSL
# partner: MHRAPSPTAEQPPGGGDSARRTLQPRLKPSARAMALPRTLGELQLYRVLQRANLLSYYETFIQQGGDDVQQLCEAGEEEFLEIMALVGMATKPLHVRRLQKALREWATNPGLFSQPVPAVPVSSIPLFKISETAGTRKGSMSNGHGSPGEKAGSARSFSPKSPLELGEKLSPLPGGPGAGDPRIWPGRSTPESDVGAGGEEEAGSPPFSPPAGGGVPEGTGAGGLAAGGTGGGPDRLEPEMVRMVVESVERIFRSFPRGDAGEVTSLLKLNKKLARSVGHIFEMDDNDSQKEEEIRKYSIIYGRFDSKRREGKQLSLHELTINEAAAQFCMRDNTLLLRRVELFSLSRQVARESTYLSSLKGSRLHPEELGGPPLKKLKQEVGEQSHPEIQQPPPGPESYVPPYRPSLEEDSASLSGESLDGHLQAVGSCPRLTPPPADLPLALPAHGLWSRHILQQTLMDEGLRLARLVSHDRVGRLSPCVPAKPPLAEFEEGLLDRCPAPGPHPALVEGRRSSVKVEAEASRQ
# B4: Protein transport protein (Homo sapiens), Q15437 (parent)
# chain: MATYLEFIQQNEERDGVRFSWNVWPSSRLEATRMVVPLACLLTPLKERPDLPPVQYEPVLCSRPTCKAVLNPLCQVDYRAKLWACNFCFQRNQFPPAYGGISEVNQPAELMPQFSTIEYVIQRGAQSPLIFLYVVDTCLEEDDLQALKESLQMSLSLLPPDALVGLITFGRMVQVHELSCEGISKSYVFRGTKDLTAKQIQDMLGLTKPAMPMQQARPAQPQEHPFASSRFLQPVHKIDMNLTDLLGELQRDPWPVTQGKRPLRSTGVALSIAVGLLEGTFPNTGARIMLFTGGPPTQGPGMVVGDELKIPIRSWHDIEKDNARFMKKATKHYEMLANRTAANGHCIDIYACALDQTGLLEMKCCANLTGGYMVMGDSFNTSLFKQTFQRIFTKDFNGDFRMAFGATLDVKTSRELKIAGAIGPCVSLNVKGPCVSENELGVGGTSQWKICGLDPTSTLGIYFEVVNQHNTPIPQGGRGAIQFVTHYQHSSTQRRIRVTTIARNWADVQSQLRHIEAAFDQEAAAVLMARLGVFRAESEEGPDVLRWLDRQLIRLCQKFGQYNKEDPTSFRLSDSFSLYPQFMFHLRRSPFLQVFNNSPDESSYYRHHFARQDLTQSLIMIQPILYSYSFHGPPEPVLLDSSSILADRILLMDTFFQIVIYLGETIAQWRKAGYQDMPEYENFKHLLQAPLDDAQEILQARFPMPRYINTEHGGSQARFLLSKVNPSQTHNNLYAWGQETGAPILTDDVSLQVFMDHLKKLAVSSAC
# partner: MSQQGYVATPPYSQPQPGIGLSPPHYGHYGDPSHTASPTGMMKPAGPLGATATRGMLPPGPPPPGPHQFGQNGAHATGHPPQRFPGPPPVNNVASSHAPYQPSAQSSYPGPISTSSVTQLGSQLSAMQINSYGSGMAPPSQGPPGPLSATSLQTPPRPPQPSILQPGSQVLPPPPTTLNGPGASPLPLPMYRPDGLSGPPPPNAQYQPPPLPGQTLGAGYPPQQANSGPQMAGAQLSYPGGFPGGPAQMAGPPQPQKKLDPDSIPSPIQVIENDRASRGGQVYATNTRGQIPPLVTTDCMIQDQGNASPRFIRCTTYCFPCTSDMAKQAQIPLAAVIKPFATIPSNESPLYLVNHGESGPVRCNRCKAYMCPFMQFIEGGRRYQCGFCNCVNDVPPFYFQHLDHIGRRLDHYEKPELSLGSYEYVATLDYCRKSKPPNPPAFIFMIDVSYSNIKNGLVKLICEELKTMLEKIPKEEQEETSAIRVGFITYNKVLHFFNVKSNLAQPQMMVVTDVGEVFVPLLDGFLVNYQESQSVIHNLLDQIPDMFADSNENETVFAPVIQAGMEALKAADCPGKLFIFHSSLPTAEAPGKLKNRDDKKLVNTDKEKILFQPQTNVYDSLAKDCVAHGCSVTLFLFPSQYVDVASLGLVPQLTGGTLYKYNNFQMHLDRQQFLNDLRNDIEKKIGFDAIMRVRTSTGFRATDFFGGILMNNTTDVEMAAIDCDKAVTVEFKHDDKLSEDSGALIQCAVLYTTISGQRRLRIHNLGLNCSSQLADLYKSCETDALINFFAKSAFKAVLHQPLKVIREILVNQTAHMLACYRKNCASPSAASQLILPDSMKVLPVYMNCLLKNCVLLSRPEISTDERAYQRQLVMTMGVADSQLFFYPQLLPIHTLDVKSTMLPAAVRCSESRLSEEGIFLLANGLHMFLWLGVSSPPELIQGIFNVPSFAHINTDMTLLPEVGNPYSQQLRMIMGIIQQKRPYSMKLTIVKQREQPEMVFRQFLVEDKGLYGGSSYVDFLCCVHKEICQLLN
# Variants of: B1
# Conditions: with thap7_human THAP7, Q9BT49
row,effect of a mutation on the interaction,Variant
1,with no effect,A89V

# Variants of: B2
# Conditions: with kxdl1_human KXD1, Q9BQD3
row,effect of a mutation on the interaction,Variant
1,with no effect,S603G

# Variants of: B3
# Conditions: with nab2_human NAB2, Q15742
row,effect of a mutation on the interaction,Variant
1,with no effect,A523S
2,with no effect,M248K

# Variants of: B4
# Conditions: with sc24d_human SEC24D
row,effect of a mutation on the interaction,Variant
1,with no effect,V426I
